# Measured values taken from the supplement of paper PMC7125110.
# ± gives the standard error. Fewer inactive variants are shown than the library holds.
# B1: glmS ribozyme (parent)
# chain: AUAAAAGCGCCAGAACUACAGAAAUGUAGUUGACGAGGAGGAGGUUUAUCGAAUUUUCGGCGGAUGCCUCCAAA
# Legend:
# Settings in all cases: with glucosamine-6-phosphate
# glucosamine-6-phosphate [1] = variants of: B1; assay: self-cleavage kobs at 640 uM GlcN6P; higher = faster cleavage; RNA array
# Procedure, shortened: (§1)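 Glucosamine-6-phosphate, from 40 μM to 10 mM in HEPES/KCl/Mg(OAc)2 buffer, was flowed over sequenced MiSeq chips carrying barcoded ribozyme variants transcribed in situ by E. coli RNA polymerase. A hybridised Cy3 probe tracked the variants at 37 °C as tiles were imaged over ~14 h. kobs, kcat and KM were obtained by fitting normalised per-tile medians to exponential decays and then applying weighted Michaelis–Menten fits across concentrations.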
# glucosamine-6-phosphate [2] = variants of: B1; assay: self-cleavage kobs at 2500 uM GlcN6P; higher = faster cleavage; RNA array
# Procedure, shortened: as §1
# glucosamine-6-phosphate [3] = variants of: B1; assay: self-cleavage kobs at 10000 uM GlcN6P; higher = faster cleavage; RNA array
# Procedure, shortened: as §1
Variant,self-cleavage kobs at 640 uM GlcN6P (glucosamine-6-phosphate [1]) [s⁻¹],self-cleavage kobs at 2500 uM GlcN6P (glucosamine-6-phosphate [2]) [s⁻¹],self-cleavage kobs at 10000 uM GlcN6P (glucosamine-6-phosphate [3]) [s⁻¹]
G32U A52C C61U,< 1e-05,,
U30C G38A G44A,< 1e-05,< 1e-05,
G7C C11G G41A,< 1e-05,< 1e-05,
G9A G13A A48G,< 1e-05,< 1e-05,
A15G G35C A53U,< 1e-05,< 1e-05,< 1e-05
G7A A39C U56G C68G,< 1e-05,< 1e-05,
C8U U55G G60U,< 1e-05,,
A6C G38U G62C C70U,< 1e-05,,
G7C A64U G66U,< 1e-05,,
C10G C68G C70U,9.88e-05 ± 3.1e-05,,
G9U G44C G63U,< 1e-05,< 1e-05,
G29U U46C G62C C71G,< 1e-05,< 1e-05,
C58G C61U G63U C68A,0.000162 ± 5.6e-05,0.000151 ± 4.4e-05,
C11G C16A U31C A42U,< 1e-05,,
C10G A33U G35C G41U U54C C70U,< 1e-05,< 1e-05,
C11G G38A G43C,< 1e-05,< 1e-05,
A15G U45C C71U,0.000376 ± 0.00017,0.000625 ± 0.0003,
A15G G29U C70G,0.000143 ± 5e-05,9.63e-05 ± 3.6e-05,
A15G G29U C70U,0.000127 ± 2.4e-05,9.76e-05 ± 3.9e-05,
G9A G29A A33C G66A,< 1e-05,,
C34U A42G C58U A64G U65G,< 1e-05,< 1e-05,
A14U G40A A53C C71A,5.44e-05 ± 1.1e-05,0.000153 ± 2.6e-05,
A6U C16U G43U U65G,< 1e-05,,

Variant,self-cleavage kobs at 640 uM GlcN6P (glucosamine-6-phosphate [1]) [s⁻¹],self-cleavage kobs at 2500 uM GlcN6P (glucosamine-6-phosphate [2]) [s⁻¹],self-cleavage kobs at 10000 uM GlcN6P (glucosamine-6-phosphate [3]) [s⁻¹]
C10A A15C U45C,< 1e-05,,
C16U C58U G63U,< 1e-05,,< 1e-05
A14C C16G G29U,0.000294 ± 5.1e-05,0.000837 ± 0.00017,
G13C A15U C61U,< 1e-05,,
G38U U46A G59A C70A,< 1e-05,< 1e-05,
U46G U49C U55G,< 1e-05,< 1e-05,
G7U G38C U45C C70G,< 1e-05,,
G7A G32A U49G,< 1e-05,,
C8U G35A U49A,< 1e-05,,
C16U G29U G40U G62C,< 1e-05,,
C50U C58A C68U,8.66e-05 ± 2.6e-05,,
A48C C70U C71G,< 1e-05,,
A14U A36U U56G C67G,0.000671 ± 0.0003,,
G13U G62C,< 1e-05,< 1e-05,
A33U A36C U45C,< 1e-05,,
A14C U49G C70G,0.000526 ± 0.00023,,
A15G U31G A39U G60U,< 1e-05,< 1e-05,
C10U U31A G40U U49C C58U G59U C70G,< 1e-05,,
C11U G32C U47C C50A,< 1e-05,,
A15G C58A C68G,0.000265 ± 8.6e-05,,
G32C C67G U69G,< 1e-05,,< 1e-05
A14G C16G A39U A52C,< 1e-05,,
G7A G51A C58A,< 1e-05,< 1e-05,

Variant,self-cleavage kobs at 640 uM GlcN6P (glucosamine-6-phosphate [1]) [s⁻¹],self-cleavage kobs at 2500 uM GlcN6P (glucosamine-6-phosphate [2]) [s⁻¹],self-cleavage kobs at 10000 uM GlcN6P (glucosamine-6-phosphate [3]) [s⁻¹]
G9U U49A C71A,< 1e-05,,
C10A G38U A39G,< 1e-05,< 1e-05,
C11U C68G,0.000314 ± 0.00012,,
C11G C16A G43U,< 1e-05,,
G13A U31G A33U,< 1e-05,< 1e-05,
A12U G13A G29A U45G,< 1e-05,< 1e-05,
A6G G9A G29A G32U G40U,< 1e-05,,
A15U U30G U69A,0.000116 ± 2.5e-05,0.000105 ± 2.9e-05,
G41U C50U G63U,< 1e-05,< 1e-05,< 1e-05
C70U A72C,0.000987 ± 0.00042,0.0035 ± 0.0017,
A6G G9A G41U A42U C70A,< 1e-05,< 1e-05,
C10G C16U A52U U54C G66A,< 1e-05,,
C8G U31A A39C G44U,< 1e-05,,
C8A C11U G37C G62A,< 1e-05,< 1e-05,
G44A C50U G63U,< 1e-05,,
A36C A48U U54G G60U G63U A64G,< 1e-05,,
G7U C58G,< 1e-05,,
G44U G62A C70U,< 1e-05,,
C10A G44A G59U,< 1e-05,,
C16U G35C A53U C58U,< 1e-05,< 1e-05,
G13U A36G U47C,< 1e-05,,
C10G G38A U47C A52C,< 1e-05,,
C16U G35U A64C,< 1e-05,< 1e-05,

Variant,self-cleavage kobs at 640 uM GlcN6P (glucosamine-6-phosphate [1]) [s⁻¹],self-cleavage kobs at 2500 uM GlcN6P (glucosamine-6-phosphate [2]) [s⁻¹],self-cleavage kobs at 10000 uM GlcN6P (glucosamine-6-phosphate [3]) [s⁻¹]
G41A U45C C70A,5.47e-05 ± 1.8e-05,,
C16G U56A C71G,7.67e-05 ± 1.7e-05,,
G32U A39G,0.0002 ± 3.6e-05,0.000485 ± 0.00015,
G9C A42U U47A U57G,< 1e-05,,
C8A C19A,< 1e-05,< 1e-05,
A6G A15U G32C U57G G59U,< 1e-05,,
G43A A48G U56A C68G,< 1e-05,,
G41U U55G A64G,8.52e-05 ± 3.1e-05,0.000147 ± 4.4e-05,
A6G G62U C71G,< 1e-05,,
A36U G44A G62A C71G,< 1e-05,< 1e-05,
A12C G38A A52U,< 1e-05,,
C8U G9U G13U G41U A42U C50G C68U,< 1e-05,< 1e-05,
A14G U49A G63U,< 1e-05,,
U30A G60U C71A,< 1e-05,< 1e-05,
G7U C10G G13C G44A U69G,< 1e-05,,
C8U U30A C71U,< 1e-05,,
G40U G43U A48C U56A U65A,< 1e-05,,
C11A G40C C50U,< 1e-05,< 1e-05,
C8A C34A G59U A64G,< 1e-05,< 1e-05,
C10G C34G G41U U45A,< 1e-05,< 1e-05,
C10A C58U G63A A64U,< 1e-05,< 1e-05,
A14G G41U C71U,0.000155 ± 4.4e-05,0.00102 ± 0.00029,
A12C G35C G44A C50U,< 1e-05,< 1e-05,

Variant,self-cleavage kobs at 640 uM GlcN6P (glucosamine-6-phosphate [1]) [s⁻¹],self-cleavage kobs at 2500 uM GlcN6P (glucosamine-6-phosphate [2]) [s⁻¹],self-cleavage kobs at 10000 uM GlcN6P (glucosamine-6-phosphate [3]) [s⁻¹]
A14U A39C A64G,0.000213 ± 5e-05,0.000771 ± 0.0002,
C34U A39C A53U,< 1e-05,< 1e-05,
A14C G40U U56G U65A C71U,0.000351 ± 6.7e-05,0.00117 ± 0.00023,
G9C C16A G63C C71G,< 1e-05,,
G38U G44C U56C,< 1e-05,< 1e-05,
C8U A33G G38A G59A C70G,5.19e-05 ± 1.9e-05,,
U46G G62C,< 1e-05,,< 1e-05
A14C U56A C71U,0.000174 ± 4.2e-05,0.000691 ± 0.00019,
A14G G37A A52G,5.33e-05 ± 1.3e-05,9.21e-05 ± 2e-05,
G37A A64U C71U,< 1e-05,< 1e-05,
A14C C50U U54A,< 1e-05,< 1e-05,
A22G A36G U56C C70G,< 1e-05,< 1e-05,
A52G U56G C67A U69C,9.46e-05 ± 1.8e-05,0.000192 ± 5.3e-05,0.000295 ± 8.2e-05
A15U U31C A39C,4.66e-05 ± 1.3e-05,0.000126 ± 2.4e-05,
C10U G44U U54G U55C,< 1e-05,< 1e-05,
A6U C34A G44U C67U,< 1e-05,< 1e-05,
A33U G35A A39G G44U C61U G62U,< 1e-05,< 1e-05,
C34A C67U,< 1e-05,< 1e-05,
G43U U47C G63U,< 1e-05,< 1e-05,
C58U A64C,< 1e-05,,
G9A A36G A39C C70G,< 1e-05,< 1e-05,
C10U A14G U69A,4.59e-05 ± 2.2e-05,4.32e-05 ± 1.9e-05,
U54C U55G C58A,7.47e-05 ± 1.6e-05,0.000102 ± 1.2e-05,

Variant,self-cleavage kobs at 640 uM GlcN6P (glucosamine-6-phosphate [1]) [s⁻¹],self-cleavage kobs at 2500 uM GlcN6P (glucosamine-6-phosphate [2]) [s⁻¹],self-cleavage kobs at 10000 uM GlcN6P (glucosamine-6-phosphate [3]) [s⁻¹]
U55A C67A C70G,0.000113 ± 2.4e-05,7.88e-05 ± 1.6e-05,
C10A G44A U47C,< 1e-05,,
G7U G37A A39C,< 1e-05,< 1e-05,
C16G G29A A39C,0.000119 ± 2.9e-05,0.00027 ± 6.6e-05,
G9A U45A C50G C68U,< 1e-05,,< 1e-05
C8G U30C A64C,< 1e-05,< 1e-05,< 1e-05
C10A G32C C34U,< 1e-05,,
G29C C58U U69A,5.92e-05 ± 2.8e-05,,
C16U U31A A33C U56G C68G,< 1e-05,,
G40C G44U U47C U55A,< 1e-05,< 1e-05,
C16G G43U G66A,< 1e-05,,
A6G C8U G37C U54C U69C,< 1e-05,< 1e-05,
C10U U49G C58A,< 1e-05,,
G9U A33C G41U G62C,< 1e-05,< 1e-05,
A6G U31G A53G,4.09e-05 ± 1.9e-05,0.000162 ± 3.5e-05,
A12C A15C U30G U49G G59A A64G,< 1e-05,< 1e-05,
U31G C58G C70G,0.000104 ± 3.4e-05,,
C34U G38U A42G,< 1e-05,< 1e-05,
